T1: recombinant human CD123-Fc (human, UniProt P26951 19-305)
T1 construct: not shown: Fc part of CD123-Fc
T1 sequence: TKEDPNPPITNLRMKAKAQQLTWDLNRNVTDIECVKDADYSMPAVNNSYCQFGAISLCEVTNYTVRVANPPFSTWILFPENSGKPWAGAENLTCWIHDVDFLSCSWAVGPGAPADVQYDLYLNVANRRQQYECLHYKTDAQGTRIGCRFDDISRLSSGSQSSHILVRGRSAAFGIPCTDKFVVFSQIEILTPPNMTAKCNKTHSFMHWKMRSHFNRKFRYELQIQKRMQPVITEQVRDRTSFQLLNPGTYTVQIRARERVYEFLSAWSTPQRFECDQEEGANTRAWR


Biological target: T1, recombinant human CD123-Fc
Test: phage ELISA, captured CD123-Fc
Method in brief: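 Phage from BCMA panning colonies were rescued with VCSM13 helper phage and diluted 5× in blocking buffer. Plates coated with anti-human IgG1-Fc captured 5 nM target-Fc or IgG1-Fc, and binding was detected with HRP anti-M13. Ratio = A450 target/A450 IgG1-Fc, averaged over the clone's wells.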

Binder	ELISA_avg [ratio A450 target/IgG1-Fc]
SEQ ID NO: 515 (designed binder, D domain, on phage) MGSWGWFKHELAFIKADLEALGGSEAELAWFEEEIAEFEYELQFYKGKGNPEVEALRKEAAAIRDELQAYRHN	3.3
SEQ ID NO: 505 (designed binder, D domain, on phage) MGSWFMFKQELAWIKEDLEALGGSEAELADFEWDIAEFEWDLQYYKGKGNPEVEALRKEAAAIRDELQAYRHN	7.2
SEQ ID NO: 506 (designed binder, D domain, on phage) MGSWQIFKGELAYIKQYLEALGGSEAELAFFEFDIAEFEEDLQYYKGKGNPEVEALRKEAAAIRDELQAYRHN	4.7
SEQ ID NO: 512 (designed binder, D domain, on phage) MGSWWLFKEQLALIKYNLEALGGSEAELADFESWIAEFEHQLQEYKGKGNPEVEALRKEAAAIRDELQAYRHN	4.1
SEQ ID NO: 491 (designed binder, D domain, on phage) MGSWYIFKEDLAEIKEELEALGGSEAELAYFEEEIALFEMELQWYKGKGNPEVEALRKEAAAIRDELQAYRHN	11.1
SEQ ID NO: 502 (designed binder, D domain, on phage) MGSWHWFKIVLADIKDGLEALGGSEAELAYFETTIADFEMDLQHYKGKGNPEVEALRKEAAAIRDELQAYRHN	4.3
SEQ ID NO: 503 (designed binder, D domain, on phage) MGSWHWFKIVLADIKDGLEALGGSEAELAYFETTIADFEMDLHHYKGKGNPEVEALRKEAAAIRDELQAYRHN	3.5
SEQ ID NO: 516 (designed binder, D domain, on phage) MGSWTWFKDNLAWIKEDLEALGGSEAELAWFELEIASFETALQDYKGKGNPEVEALRKEAAAIRDELQAYRHN	6.9
SEQ ID NO: 517 (designed binder, D domain, on phage) MGSWTYFKNDLAGIKEDLEALGGSEAELAQFEFEIAEFEWLLQDYKGKGNPEVEALRKEAAAIRDELQAYRHN	3.6
SEQ ID NO: 518 (designed binder, D domain, on phage) MGSWTWFKWDLADIKGDLEALGGSEAELAFFEEEIAEFEWRLQDYKGKGNPEVEALRKEAAAIRDELQAYRHN	5.9
SEQ ID NO: 519 (designed binder, D domain, on phage) MGSWLYFKEYLADIKSDLEALGGSEAELAWFEYEIADFEEQLQYYKGKGNPEVEALRKEAAAIRDELQAYRHN	3.7
SEQ ID NO: 489 (designed binder, D domain, on phage) MGSWYEFKFDLAEIKEQLEALGGSEAELALFEDDIAFFEYDLQNYKGKGNPEVEALRKEAAAIRDELQAYRHN	4.6
SEQ ID NO: 490 (designed binder, D domain, on phage) MGSWYDFKYDLAEIKMDLEALGGSEAELAQFEFDIAFFEEELQDYKGKGNPEVEALRKEAAAIRDELQAYRHN	3.2
SEQ ID NO: 499 (designed binder, D domain, on phage) MGSWYQFKHDLADIKYGLEALGGSEAELAWFEDDIADFELDLQYYKGKGNPEVEALRKEAAAIRDELQAYRHN	4.7
SEQ ID NO: 500 (designed binder, D domain, on phage) MGSWYVFKDDLADIKYMLEALGGSEAELAWFEWEIANFEFDLQYYKGKGNPEVEALRKEAAAIRDELQAYRHN	3.8
SEQ ID NO: 479 (designed binder, D domain, on phage) MGSWWEFKEDLAEIKWFLEALGGSEAELAWFEHDIAKFEFELQYYKGKGNPEVEALRKEAAAIRDELQAYRHN	5.1
SEQ ID NO: 482 (designed binder, D domain, on phage) MGSWTFFKDDLAEIKWMLEALGGSEAELAWFESDIAYFEDELQWYKGKGNPEVEALRKEAAAIRDELQAYRHN	3.3
SEQ ID NO: 488 (designed binder, D domain, on phage) MGSWAWFKEDLAEIKVFLEALGGSEAELAEFEVSIADFEYELQDYKGKGNPEVEALRKEAAAIRDELQAYRHN	3.5
SEQ ID NO: 481 (designed binder, D domain, on phage) MGSWNEFKDDLAMIKMTLEALGGSEAELAWFEHDIAEFEDDLQWYKGKGNPEVEALRKEAAAIRDELQAYRHN	3.5
SEQ ID NO: 484 (designed binder, D domain, on phage) MGSWSMFKDDLAEIKASLEALGGSEAELAWFEDDIAWFEDDLQHYKGKGNPEVEALRKEAAAIRDELQAYRHN	5.2
SEQ ID NO: 483 (designed binder, D domain, on phage) MGSWSDFKDDLAEIKMILEALGGSEAELAYFENDIAWFEDDLQEYKGKGNPEVEALRKEAAAIRDELQAYRHN	4.7

Binder	ELISA_avg [ratio A450 target/IgG1-Fc]
SEQ ID NO: 480 (designed binder, D domain, on phage) MGSWEWFKSDLASIKWELEALGGSEAELAWFEHDIAEFEEDLQWYKGKGNPEVEALRKEAAAIRDELQAYRHN	5.7
SEQ ID NO: 485 (designed binder, D domain, on phage) MGSWQYFKDDLAEIKMVLEALGGSEAELAWFEADIAMFEDDLQIYKGKGNPEVEALRKEAAAIRDELQAYRHN	3.6
SEQ ID NO: 494 (designed binder, D domain, on phage) MGSWDHFKNDLAWIKKHLEALGGSEAELAEFEAVIAYFELYLQGYKGKGNPEVEALRKEAAAIRDELQAYRHN	3.3
SEQ ID NO: 507 (designed binder, D domain, on phage) MGSWDFFKEELAEIKHYLEALGGSEAELAFFEFWIADFEQDLQEYKGKGNPEVEALRKEAAAIRDELQAYRHN	3.7
SEQ ID NO: 508 (designed binder, D domain, on phage) MGSWFNFKEELAVIKFQLEALGGSEAELAFFEWVIADFEDDLQEYKGKGNPEVEALRKEAAAIRDELQAYRHN	6.1
SEQ ID NO: 493 (designed binder, D domain, on phage) MGSWQDFKEDLAWIKYELEALGGSEAELAFFEYDIAIFENNLQHYKGKGNPEVEALRKEAAAIRDELQAYRHN	3.2
SEQ ID NO: 504 (designed binder, D domain, on phage) MGSWFMFKEELADIKDWLEALGGSEAELASFESYIAWFEQDLQWYKGKGNPEVEALRKEAAAIRDELQAYRHN	5.7
SEQ ID NO: 495 (designed binder, D domain, on phage) MGSWYDFKEDLADIKWMLEALGGSEAELAEFENVIAYFENDLQEYKGKGNPEVEALRKEAAAIRDELQAYRHN	8
SEQ ID NO: 496 (designed binder, D domain, on phage) MGSWYMFKEELADIKWYLEALGGSEAELAWFEDDIAGFEWDLQAYKGKGNPEVEALRKEAAAIRDELQAYRHN	7
SEQ ID NO: 513 (designed binder, D domain, on phage) MGSWHVFKTELADIKFYLEALGGSEAELAMFELWIAEFEHELQDYKGKGNPEVEALRKEAAAIRDELQAYRHN	5.4
SEQ ID NO: 501 (designed binder, D domain, on phage) MGSWNFFKYDLADIMAYLEALGGSEAELAFFEDEIANFEHDLQKYKGKGNPEVEALRKEAAAIRDELQAYRHN	4.4
SEQ ID NO: 486 (designed binder, D domain, on phage) MGSWSFFKDDLAEIKYFLEALGGSEAELAMFEQTIAEFEYDLQDYKGKGNPEVEALRKEAAAIRDELQAYRHN	10.1
SEQ ID NO: 487 (designed binder, D domain, on phage) MGSWMEFKEELAEIKYILEALGGSEAELAWFEQSIADFEYDLQDYKGKGNPEVEALRKEAAAIRDELQAYRHN	5
SEQ ID NO: 514 (designed binder, D domain, on phage) MGSWIWFKDWLADIKDLLEALGGSEAELAEFEYDIALFEDQLQAYKGKGNPEVEALRKEAAAIRDELQAYRHN	7.3
SEQ ID NO: 492 (designed binder, D domain, on phage) MGSWVLFKEELAYIKFELEALGGSEAELALFENVIAIFESNLQNYKGKGNPEVEALRKEAAAIRDELQAYRHN	3.5
SEQ ID NO: 510 (designed binder, D domain, on phage) MGSWFEFKDYLADIKWDLEALGGSEAELAIFEHDIAYFEHNLQQYKGKGNPEVEALRKEAAAIRDELQAYRHN	3.8
SEQ ID NO: 511 (designed binder, D domain, on phage) MGSWVRFKDFLADIKMDLEALGGSEAELADFEYHIAEFEHNLQEYKGKGNPEVEALRKEAAAIRDELQAYRHN	5.8
SEQ ID NO: 520 (designed binder, D domain, on phage) MGSWHWFKEELAEIKEDLVALGGSEAELAWFEYDIAMFELSLQNYKGKGNPEVEALRKEAAAIRDELQAYRHN	3.1
SEQ ID NO: 497 (designed binder, D domain, on phage) MGSWYYFKDELADIKWDLEALGGSEAELAWFEMLIAQFELDLQWYKGKGNPEVEALRKEAAAIRDELQAYRHN	4
SEQ ID NO: 509 (designed binder, D domain, on phage) MGSWYQFKTELAWIKDDLEALGGSEAELAWFEWVIADFEDDLQFYKGKGNPEVEALRKEAAAIRDELQAYRHN	6.6
SEQ ID NO: 498 (designed binder, D domain, on phage) MGSWMYFKDTLADIKWYLEALGGSEAELAFFEDWIAEFEDDLQVYKGKGNPEVEALRKEAAAIRDELQAYRHN	3.1

— patent US20230125550A1 (ARCELLX, published 2023)
